This note sets out measurements from article PMC10381268, “VEGF Detection via Impedance Spectroscopy on Surface Functionalized Interdigitated Biosensor”.

The series has as its target VEGF165 (vascular endothelial growth factor) (UniProt P15692-4 27-191). Kind of series: impedance spectroscopy on aptamer-grafted interdigitated sensor; 5 and 50 pM VEGF in PBS; 10 kHz impedance 50.32 (water), 28.90 (5 pM), 12.81 kOhm (50 pM); proteins diluted in PBS (5 and 50 pM), about 25 °C, impedance 2.5-100 kHz; aptamer grafted at 50 nM, pH 8, 24 h; water pH 7 as control. Particulars: protein: commercial; chain copies: 2.

VEGF165 (vascular endothelial growth factor), sequence (P15692 other isoform, or with tags, fused parts or gaps): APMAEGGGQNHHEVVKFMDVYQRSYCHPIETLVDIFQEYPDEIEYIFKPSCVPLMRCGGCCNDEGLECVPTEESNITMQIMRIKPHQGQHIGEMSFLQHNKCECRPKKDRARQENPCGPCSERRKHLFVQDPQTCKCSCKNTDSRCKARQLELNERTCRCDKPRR

B1: VEGF165 DNA aptamer (ssDNA)
DNA: ATACCAGTCTATTCAATTGGGCCCGTCCGTATGGTGGGTGTGCTGGCCAGATAGTATGTGCAATCA
modifications: grafted on NHS-functionalized mercapto monolayer; attachment group on the DNA not stated
As for B1, the binding result is reported as “binds”.
